This is an account of results in ChEMBL document CHEMBL1129705, “Synthesis of phosphinic acid transition state analogues for the reaction catalysed by kynureninase” (Bioorg Med Chem Lett, 1996).

Substrate in this data set: Nc1ccccc1C(=O)C[C@H](N)C(=O)O
The note with it: Pseudomonas fluorescens.

Description: Compound was evaluated for its binding affinity against kynureninase isolated from Pseudomonas fluorescence

B1: Kynureninase (Homo sapiens), Q16719 (protein)
chain: MEPSSLELPADTVQRIAAELKCHPTDERVALHLDEEDKLRHFRECFYIPKIQDLPPVDLSLVNKDENAIYFLGNSLGLQPKMVKTYLEEELDKWAKIAAYGHEVGKRPWITGDESIVGLMKDIVGANEKEIALMNALTVNLHLLMLSFFKPTPKRYKILLEAKAFPSDHYAIESQLQLHGLNIEESMRMIKPREGEETLRIEDILEVIEKEGDSIAVILFSGVHFYTGQHFNIPAITKAGQAKGCYVGFDLAHAVGNVELYLHDWGVDFACWCSYKYLNAGAGGIAGAFIHEKHAHTIKPALVGWFGHELSTRFKMDNKLQLIPGVCGFRISNPPILLVCSLHASLEIFKQATMKALRKKSVLLTGYLEYLIKHNYGKDKAATKKPVVNIITPSHVEERGCQLTITFSVPNKDVFQELEKRGVVCDKRNPNGIRVAPVPLYNSFHDVYKFTNLLTSILDSAETKN
The term Km denotes the substrate concentration at which the rate is half of its maximum. With B1, the Michaelis constant (Km) worked out at 25.6 µM.
